Results from the domain aggregation screens of Martell et al. (2025).

Test: soluble fraction after stress (log2 fold change); higher = more stays soluble; pooled small domains, quantitative proteomics
Conditions: stress: pH 4
Outline: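 Values are on a log2 scale, where higher means more of the domain stayed soluble after pH 4 stress. They are fold changes in the soluble amount of each domain from pooled custom libraries, measured by high-throughput quantitative proteomics. The fold change is taken to reflect aggregation propensity.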

Sequence | soluble fraction (log2)
HMDTVEFPVQVNGKVRGKITVAADAGKDAIETAALADEKVLAFLDGATPKKVIVVPGKLVNLVVQPG | ≥ 0.43
HMDTVSYMSDAVKAGAVTPSHDEEARARYLLYAGFGAILLFLRYEASEPGDIESAIREFMERYGPVTAELY | 0.00707
HMDTYKGFIFEVVDKYFSPTLNQKIGQAKNKQGIVLLQTKPSFTQDPKVLIEELKLIIDRDNLKA | -0.362
HMDVAAQITYAMRTMGVAPIPRNYELFYEAYIGSNPALTKELAALGSKATQEELDELGQQYF | -1.43
HMDVFPDESLKAWLIEMGFKLDQKKMNVFTVLRRMLLQTAPSVKEFRILEIVLQQSRRKLKELNDLKKS | -0.36
HMDVKQSAAGVAGRIRFELNRTLTGQGHEKFTSASQAIGPRPAAELARRLFNSGSVVGVHVFANIVTVDLL | 0.088
HMDVLKMKVEDLNIGSRTVNSLTAAKIKTVAGLIKKSKESLLELDGMGNKGVEEIILALKKLGLEL | 0.345
HMDVPTEEAILAYNNVPIELAAKFIGWSDITIRYALQEERAPFGMAAQNPKTGTWSYNISPGLLLKYKSGE | -0.39
HMDVPVEVFMERIVTALREGRKTTFSELMEGKPERGKVIGTFLALLQLSKGQQIQIHQEQRTGEISIEGGA | -1.03
HMDVQTVTVIENVNVRKSASENGQKLGLAYTGEKLELLMKQADGWTRVKYNGETAYVKSDYV | -0.0843
HMDVTSLDMLRFLMDQHGLRQQDLSELGSQGVVSEILAGKRELNLRHIGALARRFKVPPEVFLPA | -0.619
HMDVYKRQKLRNFIESLFEDAPKNKQTIELKEEMLQNLIDKYNDLVDSGKSSEAAYNIATAS | -0.0341
HMDWNPVRDITAHQVLAILQATHIRAPTVAAEAKRTLSSIFQFAVATLRADIDPVWPVRNALPKNKT | -0.561
HMDYARYGLSEKEAELIELIAQGMNNKEISAEIYLSEGTVRNYISELLEKLELRDRTQLAVYYYTHR | -1.52
HMDYDDLVPLDARGRLRLDGQDIILAFGRHRGRSIEEVHNHDKSYFDWLVSPAGGLEDEVIATLRERF | -1.4
HMDYENGTVKWFNTKKGYGFITRENGEDLFVHFRNIKGRGRRSLNDGEPVTFVVIEGDKGLQADQVSA | -0.754
HMDYGSLQRAIENQLEVRNYQKPKKFLTKIIQLMETIMVRHGVMVVGLTGTGKTTVIETLSRSMEQ | -0.529
HMDYIGIQAAKEAALKDADISSEQAVFTMAELDNKNNIFYYQIMFTENGTEYRYDIDALTGVIIEKNHFF | -0.0659
HMDYKLDVNFPEMYLEQIPAEKRAALIQILEQDPRPSYQKDPVRIYGMSYAGMEIHFRVDKETLYVTEVER | -0.0453
HMDYLSEFITDKVVRADGYSIRKGELSNEFKQWFITNVGTKNPKPKEIHDYMDRKFGKNKNGIWKNVKIKL | -0.0984
HMDYQEVEFEKLGKEILTKILLDINKKATKKTLKILIDGFNYDSYRSFYIAIGKAQISSDSILELLQH | -0.524
HMDYSWNFFIGFSVVDKVAGNLGTIEEIDDKTINTLFLVKNDDEDLIIPATEDFVEKIDAKKRILYLNLPE | -1.79
HMDYYASVDQVWRELGLAGPARRALIDDGLFKLSDLRKTSLAAVKELHGMGPNAIRILTTEMKKADLSFR | ≥ 0.43
HMDYYDTLGVPRNASQSDIKKAYKKQSMQHHPDRTGGDDTKFKDVNEAYQVLSNSEKKQMYDQFGTA | 0.0201
HMDYYNILGVNKAATAQDIKRAYRKLAKEHHPDHGGDATRLQQVNEAYDTLKDPQRREQYDS | 0.0634
HMEAADAGTLAQRAAQYFNEKNYAAALDALERRAAMAPETTELRMMRGWSLLHLNRKDEARNAFATLG | -0.188

Sequence | soluble fraction (log2)
HMEAAIRNALSRVENPDETQRARIYRTAHDALIRNLENRGITDPEQVRPQVSRLKDLISVIEREYHG | -0.0565
HMEAALTLRVDKAGSLRSLLSDEQYAKTSKIIVSGEINTLDIKTLQEMSGEKGSLQSIDLSQANIVAY | -0.351
HMEAFELTPREKQVLQLLVQGKAYKIIAADLDITYDTVRAHIKKIYEKLHVGSMTEAVAKAIQHKL | 0.194
HMEAKKVIAVHIIGEINKPGIVELEEGARVIDAIKKAGGTTEKADLAQINLAYILKDGQKIYIPNTEDN | -0.334
HMEALASESVKDKIRKIIDSEDPSRPMSDQRIKEMLKAANIDIARRTVTKYREAMNILSSTKRRQV | -0.168
HMEALDPLTAREQEVLEMILSGKSNREIAAELHITENTVKTHAQSIYSKYDVRGRAKLISLLLKGEA | -0.192
HMEALQKVSINYYDEGAGKQIAEVPLEVGAGDTEIALAVINKYMPAEYNLVSTDYQIRGGYVYVSVTPA | -0.215
HMEAPPHEALSNREFQVLQLLSQGRSVTQIAHQLTLSANTISTYRARIFDKLGLHNPADLYAYAARHGLM | -0.0709
HMEAPWQEIKRQVMDGLDMSREFTDEELRERIALAVRSYSKEKLLSLKVRESYEEQIFNSFR | -0.261
HMEAQFIDINDVRIGTYVYVDLGWIKHPFALNSFKITSRDQIDTLIKLGVKRIRWSPEKSDS | -0.483
HMEARNDWAQQSRADAEFGGEKLDENLAVAKKAVEALASPELKTLLEQSGLGNHPEIIRLFYRAGRSLS | -0.122
HMEATILTATPEAAGQRLDAFLAETLPELTRSAAQRLIAEGQVAVDGKIPTKSLKLAGGETVSVRLPEPE | -0.0707
HMEAVIGGIYRHYKGNNYKLLAVATHSETLEKMAVYQALYGEMGIWVRPLAMFMETIEKDGQSLKRFE | -0.932
HMEDAWMKKELWDAIATLPKKQRLVMTMRLTNNHSYKEIAAILGISENSAKVSYHHAVERLKEKFK | 0.0668
HMEDDPIYEQVMIFLLDKQITSAPELERRFKITHQRAIELLAQMEKTGIVSTMGHAGKRDVLT | -0.355
HMEDEFNQIASQKNVPSFLGKGKKEVINIAKKNKIKINLSGNGYVKRQIPAPGEVISHLDEVTIFLEPG | -0.179
HMEDEVYFVPSPASRFNPWIAALASRRVPYRVEYDGAERRIAVPAGYAEKAGEELAAYERINHAWPR | -0.111
HMEDFDLSDTERKIIAQIGHGYSNKEIAQKLGFSEGTIRNYLSVILDKLDLRDRTQLAIWYLSR | -0.229
HMEDIAAIAQRIQGLRDIVGISVEEMAKALDISEQEYREYEKGETDFSFSFLYTVANVLGINITDLI | -1.56
HMEDIEEVIVEIDTVLRTHFDRGRTEVLFAEIETAGGRPFMTYLALLFMAHRGSVRLQQDDLFGDLWVKDP | -0.959
HMEDISLYKILRAHSIDNLKLSQWIIDSLKTKFSTIGELQDAKIDDIRMYRIQDVRIEKIKNAVTEYMA | -0.701
HMEDISQHAVKKLVQEMVMAEDPRDPLSDQQIAENLSRLGLKVARRTVAKYRAMLGIQPSNRRRK | 0.0963
HMEDIVDLVVEPEAAGRRLDAWLASRIERLSRSRIKALIESGHVAIGGATIVEAKKPVNSGDVVQLSVPEG | -0.121
HMEDKQRRMGELVALLNRAAYAYYTKDEPIMADVQYDRLYDELLSLEKETGVQMADSPTHRV | -0.871
HMEDLMEERKEHLLSVMKDPAYVPMKQKELAMLLNVPKGLREELNQVLDALVAEGSVVMSKRGKYTIPQ | 0.189
HMEDNLVTYPNPTSDYIYVSKKVDLTVVNMLGDILIQKQNINVLDVTELTPGMYTIVIRYNNVTTNKRIIK | -0.335

Sequence | soluble fraction (log2)
HMEDPFATLGVHREASLDEIKRAYRRLAMFWHPDRNPEAVAGTEFKRVHAAYELLLDPQRLAEWQQAQAT | -0.424
HMEDPLAAQWKQGRKLFHDDYGYGIISKAFTAGDELVIMVQFENGGEKRFLPKYQAHNLLLVEQ | -1.3
HMEDQVITQFNMRLIRAVMPQGAPMIVVYEDPKDYPGLFVARLFDGRKSTHLIALADTLEDI | -0.351
HMEDVDTAALEKVIATAKGLNKNDYTATTWTTMQAALTNAEKALEAKKSQTSVDEAAKTLQAAIDGLKKAS | -0.103
HMEDVPYMIKLPSHHYLTKMVDGSTGWSLVQNSNTVVGSSKEELLKQYPEYEDFIVQEPLNV | -0.336
HMEDVSTLAVKQRIDDLVKQENPAKPLSDSDIVARLKTDGIYIARRTVAKYRMELNIPSSSARKRAQQFS | 0.266
HMEDWTPERFVGAFVSGGPALRDEILLAATKDLSHAQATRLLKLAEARGLVHRSQPGPSERVRFVVARK | -0.0732
HMEDYTPLQELGLKARYIELLEKGGIFSVEDLVQKSVDDLKDIDGIGEKTAKEIWEIVDSMVDF | -0.308
HMEDYYKEDYYTEVLKIPKEYIKGFQYYLIEDAEFVNALNAKNKTMTSFLAKKLASDYIEIIHQEQ | -1.44
HMEEDDGVDFHERLTELNDEQVYYLINTEPAKVIALALDQLGQKRKINIMNRFNPDMKHSIIMELGKL | -0.666
HMEEDGAPLESREVLLDQAISQGKGTQWTIATETKLEDHIVSGAYSTDGKVTLAVFSPLGDGKYEFSSSVN | -0.172
HMEEDPIIIAQRFLNIFRQLHIFSEEKKESFNKMLLEQPAEIRGALRSLPGGGLLQDYIDDLESKA | -0.711
HMEEEEITIHIIGEVKYPGIVILKTGQRIIDAIDAAGGETEEADLNKINLAQLLSDGDKIYVPSINDN | -1.05
HMEEFAGYINGQPYYGPTHQHRGVKMVGAEHTQRPHPLVWDSVAKSLDNYDNRFQWVNGNLLQVV | 0.3
HMEEFGRRLKERMIDKNMTEAELAQKTELWSSILTSYLKGERFPGYYTLLRIAEALDVSIDFLLGLRDEPE | -2.01
HMEEILLSVKADGTYWVDQKEVTLDEVGALLDKEPDRLLNIFMDEKVPVRHFINVVDIAKVKREGRFII | -1.74
HMEEIQLILAKNLKSIREKEKLSLEKVSQLTGVSKTMIGQIERGDSSPTLTTIWKIANGLKVSFTSLINNP | 0.182
HMEEKKYEVGDVVSFNYLYKNSFAEGKVSSLIHSGTITRIIDGRPAPYLINRGTGWLSNDLILT | -0.179
HMEEKNNIIVSYIEDKISELEKASMYVPNENKEKLIMAFKNRNEDIDVIKTRIDTIFNNSVAAYKENME | -1.32
HMEEKTMNLPPSAKLVYKILSYEGNLTQKEIINMTYLPERTVRHALELLLGKRLITRQAYLNDARQSVYG | -0.265
HMEEKVEVPNLSGKTYQQAKALLESYGLVAAKGGEEESEEPVGKVSRWSSAGKSVKKGTTITVWISGGI | 0.1
HMEEKWKENYEKIKLFISINNRYPSVYSEDKEEGLIGSFMSNQKRRKNKLSKEKMALFEALPNWIWE | -0.812
HMEELNFYPNPAYKYINLDYVGLKEIYTVLGKKLLETYDTRINISNLNSGIYLIKFKNQALRFVK | -0.32
HMEELVGFEEKVRSILTSPLSAKEIKEKTHIEIDTRKLSKMLSELSFIKTEKKNGKKIFRLVS | -0.0997
